The target in test [1] is T1, Human CD47-C33G (human, UniProt Q08722 19-135).
T1 construct: also called CD47 mutein with C33G mutation
The test is described as follows: SPR, IgG captured, CD47 in flow; exp 3. For orientation: SPR reads the build-up and loss of mass on a sensor chip optically.

Test [2] addresses T2, wild type human CD47 (Acro Biosystems, cat. no. CD7-H5227) (human, UniProt Q08722 19-139).
T2 construct: Bought protein used as SPR analyte; also called Human CD47 wt; wild-type CD47
Kind of test: SPR, IgG captured, CD47 in flow; exp 3.

The target of test [3] is T1, Human CD47-C33G. Kind of test: SPR, IgG captured, CD47 in flow; exp 2.
For test [4], the target named is T2, wild type human CD47 (Acro Biosystems, …). The test is described as follows: SPR, IgG captured, CD47 in flow; exp 2.
Test [5] addresses T1, Human CD47-C33G. Kind of test: SPR, IgG captured, CD47 in flow; exp 4.
Test [6] has as its target T2, wild type human CD47 (Acro Biosystems, …). Kind of test: SPR, IgG captured, CD47 in flow; exp 4.
Test [7] deals with T1, Human CD47-C33G. Kind of test: SPR, IgG captured, CD47 in flow; exp 1.
The target of test [8] is T2, wild type human CD47 (Acro Biosystems, …). Kind of test: SPR, IgG captured, CD47 in flow; exp 1.
Test [9] concerns the target T1, Human CD47-C33G. The test is described as follows: SPR, IgG captured, CD47 in flow; exp 1. This is another data set of the same source.
Test [10] addresses T2, wild type human CD47 (Acro Biosystems, …). Kind of test: SPR, IgG captured, CD47 in flow; exp 1. This is another data set of the same source.
The target in test [11] is T1, Human CD47-C33G. The test is described as follows: SPR, IgG captured, CD47 in flow; exp 4. This is another data set of the same source.
Test [12] concerns the target T2, wild type human CD47 (Acro Biosystems, …). Kind of test: SPR, IgG captured, CD47 in flow; exp 4. This is another data set of the same source.
Test [13] has as its target T1, Human CD47-C33G. Kind of test: SPR, IgG captured, CD47 in flow; exp 3. This is another data set of the same source.
The target of test [14] is T2, wild type human CD47 (Acro Biosystems, …). The test is described as follows: SPR, IgG captured, CD47 in flow; exp 3. The source holds these as a separate data set.
Test [15] addresses T1, Human CD47-C33G. The test is described as follows: SPR, IgG captured, CD47 in flow; exp 2. The source holds these as a separate data set.
The target of test [16] is T2, wild type human CD47 (Acro Biosystems, …). The test is described as follows: SPR, IgG captured, CD47 in flow; exp 2. The source holds these as a separate data set.
Test [17] deals with T3, human CD47 on cells (SHP-77 tumor cells, human red blood cells, CCRF-CEM cells, human CD47 CHO-K1 stable cell … (human, UniProt Q08722 19-323)).
T3 construct: whole, on cells; also called RBC
Kind of test: flow cytometry on human RBCs.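 Further: antibody binding measured by flow cytometry as geometric mean fluorescence intensity over a range of antibody concentrations, with EC50 and maximum taken from a sigmoidal dose-response fit.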 On the technique in general: In flow cytometry, cells or beads pass a laser one at a time.

Test [18] has as its target T4, cynomolgus CD47 on CHO-K1 stable cell line (cynomolgus, UniProt A0A5F8AK49 19-323 (rhesus entry)).
T4 construct: whole, on cells; also called cynomolgus CD47/CHO-K1
Kind of test: flow cytometry on cynomolgus CD47 CHO-K1 cells.

Test [19] has as its target T3, human CD47 on cells (SHP-77 tumor …). The test is described as follows: flow cytometry on SHP-77 cells.
For test [20] the target is unchanged. Kind of test: cell-based or functional assay.
Test [21] shares this target. Kind of test: flow cytometry on human CD47 CHO-K1 cells.
Test [22] has the same target. The test is described as follows: flow cytometry on human CD47 CHO-K1 cells; plateau not reached, not accurate.
Test [23] deals with T4, cynomolgus CD47 on CHO-K1 stable cell …. Kind of test: flow cytometry on cynomolgus CD47 CHO-K1 cells; plateau not reached, not accurate.

Where a chain is given by its changes, count along the chain named. Numbers in names are those of the source.

B1: chimeric antibody 108C10A6 (antibody, V domains shown)
VH: QMQLQQSGPQLVRPGASVKISCKTSGYSFTHHWIHWMKQRPGQGLEWIGMIDPSDSETRLSQKFKDKATLTVDASSSTAYMQLNSPTSEDSALYFCARLGRYYFDYWGQGTTLTVSS
VL: NIVMTQSPRSMSMSVGERVTLSCKASENVGTYISWYQQKPDQSPKLLIYGASNRYTGVPDRFTGSGSGTDFTLTISTVQAEDLADYHCGESYGHLYTFGGGTKLEIK
notes: Chimeric antibody with mouse variable domains; captured through human Fc; also called VH / VL
As for B1, the dissociation constant Kd is 0.95 nM with Human CD47-C33G [1]; 0.2 nM in test [2]; 1.3 nM in the test with Human CD47-C33G [3]; 0.21 nM in test [4]; 0.67 nM with Human CD47-C33G [5]; 0.17 nM in [6]. Besides, the Kd in the test with Human CD47-C33G [7] was 0.92 nM; in test [8], 0.2 nM; in the test with Human CD47-C33G [9], 1 nM; in test [10] it was 0.19 nM; with Human CD47-C33G [11], 0.67 nM; in [12], 0.17 nM. Further, the Kd in the test with Human CD47-C33G [13] is 0.95 nM; in test [14], 0.2 nM; with Human CD47-C33G [15], 1 nM; in test [16], 0.19 nM. The koff with Human CD47-C33G [1] was 0.00063 s⁻¹; in [2], 0.00032 s⁻¹; with Human CD47-C33G [3] it was 0.00074 s⁻¹; in [4], 0.00034 s⁻¹; with Human CD47-C33G [5], 0.00061 s⁻¹; in test [6], 0.0003 s⁻¹. Also, the koff was determined as 0.00068 s⁻¹ with Human CD47-C33G [7]; 0.00032 s⁻¹ in test [8]; 0.00073 s⁻¹ in the test with Human CD47-C33G [9]; 0.00032 s⁻¹ in test [10]; 0.00061 s⁻¹ in the test with Human CD47-C33G [11]; 0.0003 s⁻¹ in [12]. Also, the koff came out at 0.00063 s⁻¹ in the test with Human CD47-C33G [13], 0.00032 s⁻¹ in test [14], 0.00073 s⁻¹ with Human CD47-C33G [15] and 0.00032 s⁻¹ in test [16]. Besides, the kon came to 660000 M⁻¹ s⁻¹ with Human CD47-C33G [1]; 1.6e+06 M⁻¹ s⁻¹ in test [2]; 590000 M⁻¹ s⁻¹ in the test with Human CD47-C33G [3]; 1.6e+06 M⁻¹ s⁻¹ in test [4]; 920000 M⁻¹ s⁻¹ with Human CD47-C33G [5]; 1.8e+06 M⁻¹ s⁻¹ in test [6]. Also, the kon with Human CD47-C33G [7] was found to be 740000 M⁻¹ s⁻¹; in test [8], 1.5e+06 M⁻¹ s⁻¹; with Human CD47-C33G [9], 720000 M⁻¹ s⁻¹; in test [10] it was 1.6e+06 M⁻¹ s⁻¹; in the test with Human CD47-C33G [11], 920000 M⁻¹ s⁻¹; in [12], 1.8e+06 M⁻¹ s⁻¹. The kon was determined as 660000 M⁻¹ s⁻¹ with Human CD47-C33G [13], 1.6e+06 M⁻¹ s⁻¹ in test [14], 720000 M⁻¹ s⁻¹ in the test with Human CD47-C33G [15] and 1.6e+06 M⁻¹ s⁻¹ in test [16].

B2: 108VH5 / 108VL1.M5 (antibody, human IgG4 S228P, kappa, V domains shown)
VH: EVQLVQSGAEVKKPGASVKVSCKASGYSFTHHWIHWVRQAPGQGLEWMGMIDPSDSETRLSQKFKDRVTMTRDTSTSTVYMELSSLRSEDTAVYYCARLGRYYFDYWGQGTLVTVSS
VL: EIVLTQSPATLSLSPGERATLSCRASQSVSSYLAWYQQKPGQAPRLLIYGASNRATGIPARFSGSGSGTDFTLTISSLEPEDFAVYYCGESYGHLYTFGGGTKVEIKR
notes: Full-length IgG4 (S228P), kappa; also called VH5 VL1.M5
Regarding B2, the Kd in the test with Human CD47-C33G [7] amounted to 3.4 nM; in test [8], 0.83 nM; with Human CD47-C33G [15], 3.9 nM; in [16], 0.82 nM. Also, the koff with Human CD47-C33G [7] is 0.0012 s⁻¹; in test [8], 0.00065 s⁻¹; with Human CD47-C33G [15] it was 0.0012 s⁻¹; in [16], 0.00059 s⁻¹. In addition, the kon with Human CD47-C33G [7] worked out at 340000 M⁻¹ s⁻¹; in [8], 780000 M⁻¹ s⁻¹; with Human CD47-C33G [15] it was 310000 M⁻¹ s⁻¹; in [16] it was 720000 M⁻¹ s⁻¹.

B3: 108VH5.M18 / 108VL1.M5 (antibody, human IgG4 S228P, kappa, V domains shown)
VH: B2 VH with S28T, I34M, P53A, D55E, L60Y, S61A, K65Q, D66G
VL: B2 VL
notes: Full-length IgG4 (S228P), kappa; also called VH5.M18 VL1.M5
In the test with Human CD47-C33G [1], B3 came in with a Kd of 1200 nM, an off-rate (koff) of 0.087 s⁻¹ and a kon of 75000 M⁻¹ s⁻¹. In test [2], this molecule registered a Kd of 12 nM, a koff of 0.002 s⁻¹ and a kon of 170000 M⁻¹ s⁻¹.

B4: 108VH5.M17 / 108VL1.M5 (antibody, human IgG4 S228P, kappa, V domains shown)
VH: B2 VH with S28T, I34M, P53A, D55E, S56G, L60Y, S61A, K65Q, D66G
VL: B2 VL
notes: Full-length IgG4 (S228P), kappa; also called VH5.M17 VL1.M5
In the test with Human CD47-C33G [1], B4 registered a Kd of 1300 nM, a koff of 0.084 s⁻¹ and a kon of 64000 M⁻¹ s⁻¹. In test [2], the Kd is 18 nM, the koff worked out at 0.0084 s⁻¹ and the kon turned out to be 460000 M⁻¹ s⁻¹.

B5: 108VH5.M23 / 108VL1.M5 (antibody, human IgG4 S228P, kappa, V domains shown)
VH: B2 VH with S28T, I34M, P53A, S56K, L60Y, S61A, K65Q, D66G
VL: B2 VL
notes: Full-length IgG4 (S228P), kappa; also called VH5.M23 VL1.M5
For the molecule B5, the EC50 in [17] stood at 5.8 nM; in test [18], 3.2 nM; in [19], 8.1 nM; in test [21], 2.7 nM. The “Fitted Maximal MFI” value in [17] is 38800 MFI; in [19] it was 42100 MFI. For the same molecule, the Kd with Human CD47-C33G [5] is 33 nM; in [6] it was 6.4 nM. The koff with Human CD47-C33G [5] came out at 0.0058 s⁻¹; in test [6], 0.0028 s⁻¹. Also, the kon with Human CD47-C33G [5] came out at 170000 M⁻¹ s⁻¹; in [6], 440000 M⁻¹ s⁻¹. In [20], the “CCRF-CEM phagocytosis EC50” value turned out to be 0.33 nM. Besides, the “CCRF-CEM phagocytosis, Phagocytosis (%)” value in test [20] worked out at 64%.

B6: 108VH5.M6 / 108VL1.M5 (antibody, human IgG4 S228P, kappa, V domains shown)
VH: B2 VH with S28T, W33Y, I34M, P53A
VL: B2 VL
notes: Full-length IgG4 (S228P), kappa; also called VH5.M6 VL1.M5
For B6, the EC50 turned out to be 11.1 nM in [17], 20 nM in test [22], 25.1 nM in [19] and 22.5 nM in test [23]. Moreover, the “Fitted Maximal MFI” value in test [17] was determined as 9460 MFI; in test [19], 6250 MFI. The Kd is 800 nM with Human CD47-C33G [7] and 8 nM in [8]. The koff is 0.097 s⁻¹ with Human CD47-C33G [7] and 0.0039 s⁻¹ in [8]. The kon with Human CD47-C33G [7] was 120000 M⁻¹ s⁻¹; in test [8] it was 490000 M⁻¹ s⁻¹.

B7: 108VH5.M27 / 108VL1.M5 (antibody, human IgG4 S228P, kappa, V domains shown)
VH: B2 VH with S28T, I34M, P53A, S56Y, L60Y, S61A, K65Q, D66G
VL: B2 VL
notes: Full-length IgG4 (S228P), kappa; also called VH5.M27 VL1.M5
Turning to B7, the EC50 was 4.7 nM in test [17], 3.4 nM in [18], 9 nM in test [19] and 2.6 nM in [21]. Further, the entries for the “Fitted Maximal MFI” value in [17] and in test [19] were 26900 MFI and 36500 MFI, respectively. For the same molecule, the Kd in the test with Human CD47-C33G [5] was 39 nM; in test [6], 7.4 nM. The values for the koff (in the test with Human CD47-C33G [5]; in [6]) were 0.0085 s⁻¹ and 0.0036 s⁻¹, respectively. Besides, the kon with Human CD47-C33G [5] was 220000 M⁻¹ s⁻¹; in test [6], 490000 M⁻¹ s⁻¹. Moreover, the “CCRF-CEM phagocytosis EC50” value in [20] came out at 0.28 nM. The “CCRF-CEM phagocytosis, Phagocytosis (%)” value in test [20] came out at 64.3%.

B8: Hu5F9 (antibody, V domains shown)
VH: QVQLVQSGAEVKKPGASVKVSCKASGYTFTNYNMHWVRQAPGQRLEWMGTIYPGNDDTSYNQKFKDRVTITADTSASTAYMELSSLRSEDTAVYYCARGGYRAMDYWGQGTLVTVSS
VL: DIVMTQSPLSLPVTPGEPASISCRSSQSIVYSNGNTYLGWYLQKPGQSPQLLIYKVSNRFSGVPDRFSGSGSGTDFTLKISRVEAEDVGVYYCFQGSHVPYTFGQGTKLEIK
Take B8: the EC50 in test [18] came out at 0.6 nM.

By Kd is commonly meant the equilibrium constant for the complex coming apart. Read a low Kd as a tighter complex. In general, koff refers to a measure of how fast the partners let go of each other. In general, kon refers to a measure of how fast the partners come together. A lower kon goes with slower complex formation. A word on the EC50: it is the concentration at which the effect is half-maximal.

The values are drawn from patent US20260132197A1 (NANJING LEGEND BIOTECH, published 2026).
